# Experimental data: article PMC8962422
# Biological target: CM19XA (UniProt P15391)
# Experiment: SEC; ENrich SEC 650 column on an NGC system, running buffer PBS, peak positions compared with BioRad size exclusion standards; after Ni-NTA purification
substance,measurement,value
CM19XA (from UniProt P15391 20-291; Q9Y624 28-238),stoichiometry N,2
